{"source": "paper PMC4356361", "about": "“Three-dimensional structures of Plasmodium falciparum spermidine synthase with bound inhibitors suggest new strategies for drug design” (Acta Crystallographica Section D: Biological Crystallography, 2015)", "proteins": {"B1": {"name": "Plasmodium falciparum spermidine synthase, 39-residue N-terminally truncated construct (enzyme, UniProt Q8II73 40-321, looked up)", "chain": "SKKWFSEFSIMWPGQAFSLKIKKILYETKSKYQNVLVFESTTYGKVLVLDGVIQLTEKDEFAYHEMMTHVPMTVSKEPKNVLVVGGGDGGIIRELCKYKSVENIDICEIDETVIEVSKIYFKNISCGYEDKRVNVFIEDASKFLENVTNTYDVIIVDSSDPIGPAETLFNQNFYEKIYNALKPNGYCVAQCESLWIHVGTIKNMIGYAKKLFKKVEYANISIPTYPCGCIGILCCSKTDTGLTKPNKKLESKEFADLKYYNYENHSAAFKLPAFLLKEIENI", "notes": "Spermidine synthase of Plasmodium falciparum, construct lacking the first 39 N-terminal residues, in the p15-Tev-LIC vector, as described in Dufe et al. (2007); The crystals also held small-molecule ligands (MTA, dcAdoMet, putrescine, spermidine, 4MAN, 4AMA, BIPA); also called PfSpdS; SpdS; source: His-tag removed with TEV protease; not shown: His6, N-terminal, cleaved"}}, "target": "the molecule itself", "assay": "crystal structure; hanging-drop vapour diffusion at 295 K, 0.1 M MES pH 5.6, 0.1 M ammonium sulfate, 27% PEG 3350; space group C2, three monomers in the asymmetric unit; protein pre-incubated with small-molecule ligands"}
{"protein": "B1", "values": [{"measurement": "binding result", "result": "binds"}]}
